Read-outs that look alike come from different tables or passages of the source.
Key:
[1] = target: T1, recombinant human neuronal calcium channel α1B-1α2bβ1-2 (human), Q00975
[2] = target: recombinant human neuronal calcium channel α1B-1α2bβ1-3 (human); assay: 125I-ω-CgTx GVIA saturation binding to transiently transfected HEK293 cells
[3] = target: recombinant human neuronal calcium channel α1B-2α2bβ1-3 (human), Q00975; assay: as above
[4] = target: recombinant human neuronal calcium channel α1B-1β1-2 (human), Q00975; assay: as above
[5] = target: recombinant human neuronal calcium channel α1B-2β1-2 (human), Q00975; assay: as above
[6] = target: recombinant human neuronal calcium channel α1B-1β1-3 (human), Q00975; assay: as above
[7] = target: recombinant human neuronal calcium channel α1B-2α2bβ1-2 (human); assay: as above
[8] = target: T2, recombinant human neuronal calcium channel α1B-1α2b (human); assay: as above
[9] = target: recombinant human neuronal calcium channel α1B-2β1-3 (human), Q00975; assay: as above
[10] = target: T1, recombinant human neuronal calcium …; assay: as above
[11] = target: human neuronal calcium channel α1B-1 subunit (expressed alone) (human), Q00975
[12] = target: T2, recombinant human neuronal calcium …

B1: ω-CgTx, P01522 46-73 (peptide)
peptide: CKSPGSSCSPTSYNCCRSCNPYTKRCYG
modifications: not checked
- Kd [1]: 0.0546 nM
- binding capacity (Bmax) (sites per cell) [1]: 28700

B2: 125I-ω-CgTx GVIA, P01522 46-73 (peptide)
peptide: CKSPGSSCSPTSYNCCRSCNPYTKRCYG
modifications: not checked
- Bmax [2]: 91000 sites/cell
- Kd [2]: 0.0532 nM
- fold change of binding capacity against α1B-1α2bβ1-2 [2]: 2 fold
- fold change of binding sites per cell against α1B-2α2bβ1-3 [2]: 2.5 fold
- fold change of surface receptor density against α1B-1β1-3 [2]: 10 fold
- Bmax [3]: 37700 sites/cell
- Kd [3]: 0.0443 nM
- fold change of binding capacity against α1B-2α2bβ1-2 [3]: 2 fold
- fold change of surface receptor density against α1B-2β1-3 [3]: 13 fold
- Bmax [4]: 5760 sites/cell
- Kd [4]: 0.0179 nM
- fold change of surface binding against α1B-1 alone [4]: 8 fold
- Bmax [5]: 2130 sites/cell
- Kd [5]: 0.0164 nM
- Bmax [6]: 8730 sites/cell
- Kd [6]: 0.0179 nM
- fold change of surface binding against α1B-1 alone [6]: 10 fold
- Bmax [7]: 19400 sites/cell
- Kd [7]: 0.053 nM
- fold change of surface receptor density against α1B-2β1-2 [7]: 9 fold
- fold change of binding capacity against α1B-1 alone [8]: 3 fold
- Bmax [9]: 2940 sites/cell
- Kd [9]: 0.0222 nM
- Bmax [10]: 45300 sites/cell
- Kd [10]: 0.0549 nM
- fold change of binding sites per cell against α1B-2α2bβ1-2 [10]: 2.5 fold
- fold change of surface receptor density against α1B-1β1-2 [10]: 8 fold
- Bmax [11]: 757 sites/cell
- Kd [11]: 0.0317 nM
- Bmax [12]: 2260 sites/cell
- Kd [12]: 0.0846 nM

Reference: US20070244297A1
